{"source": "patent US20250314655A1"}
{"target": "TRBC1 peptide (biotinylated) (human)", "assay": "TRF assay, scFv on biotin-peptide/neutravidin plate", "units": {"TRBC1 Binding": "TRF units"}}
{"binder": "CP_03_G09 (scFv, not shown: small tags and cut ends) scFv: QVQLQQSGPGLVKPSQTLSLTCAISGDSVSSNSAAWNWIRQSPSRGLEWLGRTYYRSKWYNDYAVSVKSRITINPDTSKNQFSLQLNSVTPEDTAVYYCARDQWLANYYYYGMDVWGQGTLVTVSSGGGGSGGGGSGGGASSYELTQPLSVSVALGQTARITCGGNNIGSKNVHWYQQKPGQAPVLVIYRDNNRPSGIPERFSGSNSGNTATLTISKAQAGDEADYYCQVWDSNSWVFGGGTKLTVLGQPAA", "TRBC1 Binding": 979}
{"binder": "CP_03_D05 (scFv, not shown: small tags and cut ends) scFv: QVQLVESGAEVKKPGASVKVSCKASGYTFTGYYMHWVRQAPGQGLEWMGRINPNSGGTNYAQKFQGRVTMTRDTSISTAYMELSRLRSDDTAVYYCASPRGRGSAFDIWGQGTLVTVSSGGGGSGGGGSGGGASSYELTQPPSVSVSPGQTATISCSGDQLGGKYGHWYQKKPGQSPVLVLYQDRKRPAGIPERFSGSSSGNTITLTISGTQAVDEADYYCQAWDTNLGGVFGGGTKVTVLGQPAA", "TRBC1 Binding": 762}
{"binder": "CP_03_F10 (scFv, not shown: small tags and cut ends) scFv: EVQLVESGAEVKKPGASVKVSCKASGYTFTGYYMHWVRQAPGQGLEWMGRINPNSGGTNYAQKFQGRVTMTRDTSISTAYMELSSLRSEDTAVYYCARFGERYAFDIWGQGTLVTVSSGGGGSGGGGSGGGASQSELTQPPSASGSPGQSVTISCTGTSTDVGAFHFVSWYQHTPGKAPKLLISEVRKRASGVPDRFSGSRSGNTASLTVSGLQSEDEADYFCSAYTGSNYVFGSGTKLTVLGQPAA", "TRBC1 Binding": 1680}
{"binder": "CP_03_D09 (scFv, not shown: small tags and cut ends) scFv: EVQLVQSGAEVKKPGSSVKVSCEASGYTFTSYAISWVRQAPGQGLEWMGWMNPNSGNTGYAQKFQGRVTMTRNTSISTAYMELSSLRSEDTAVYYCARVSSYYGMDVWGQGTLVTVSSGGGGSGGGGSGGGASNFMLTQPLSVSESPGKTVTISCTRSSGSIASNYVQWYQQRPGSAPTTVIYEDNQRPSGVPDRFSGSIDSSSNSASLTISGLKTEDEADYYCQSYNSSNHWVFGGGTKVTVLGQPAA", "TRBC1 Binding": 544}
{"binder": "CP_03_H06 (scFv, not shown: small tags and cut ends) scFv: QVQLVESGGGLVKPGGSLRLSCAASGFTFSDYYMSWIRQAPGKGLEWVSYISSSGSTIYYADSVEGRFTISRDNAKNSLYLQMNSLRTEDTAVYYCARARVGGMDVWGQGTMVTVSSGGGGSGGGGSGGGASNFMLTQPHSVSESPGKTVTISCTRSSGSIASNYVQWYQQRPGSSPTTVIYEDNQRPSGVPDRFSGSIDSSSNSASLTISGLKTEDEADYYCQSFDADNLHVVFGGGTKLTVLGQPAA", "TRBC1 Binding": 391}
{"binder": "CP_03_C12 (scFv, not shown: small tags and cut ends) scFv: EVQLVQSGAEVKKPGASVKVSCKASGYTFTGYYMHWVRQAPGQGLEWMGWINPNSGGTNYAQKFQGRVTMTRDTSISTAYMELSSLRSEDTAVYYCARDTGPIDYWGQGTMVTVSSGGGGSGGGGSGGGASDIVMTQTPLSLSVTPGQPASISCKSSQSLLHSDGKTYLYWYLQKPGQPPQLLVYEVSNRFSGVPDKFSGSGSGTDFTLKISRVEAEDVGVYYCMQGIQLPPTFGGGTKVDIKRTAAA", "TRBC1 Binding": 789}
{"binder": "CP_03_F09 (scFv, not shown: small tags and cut ends) scFv: QMQLVQSGAEVKKPGASVKVSCKASGYTFASYYMHWVRQAPGQGLEWMGIINPSGGSTSYAQKFQGRVTMTRDTSTSTVYMELSRLRSDDTAVYYCASNRGGSYKSVGMDVWGQGTTVTVSSGGGGSGGGGSGGGASNFMLTQPQSVSESPGKTVTISCTRSSGNFASKYVQWYQQRPGSSPTTVIYENYQRPSGVPDRFSGSIDSSSNSATLTISGLKTEDEADYYCQSYDEVSVVFGGGTQLTVLGQPAA", "TRBC1 Binding": 889}
{"binder": "CP_03_E05 (scFv, not shown: small tags and cut ends) scFv: EVQLVESGGGVVQPGGSLRLSCAASGFTFSSYAMSWVRQAPGKGLEWVSAISGSGGSTYYADSVKGRFSISRDNSKNTLYLQMNSLRAEDTAVYYCARTRSSGAFDIWGQGTLVTVSSGGGGSGGGGSGGGASNFMLTQPHSVSESPGKTVTISCTRSSGSIASKYVQWYQQRPGSSPTTVIYEDNQRPSGVPDRFSGSIDTSSNSASLTISGLRTEDEADYYCHSYDSNNHSVFGGGTKVTVLGQPAA", "TRBC1 Binding": 1620}
{"target": "TRBC2 peptide (biotinylated) (human)", "assay": "TRF assay, scFv on biotin-peptide/neutravidin plate", "units": {"TRBC2 Binding": "TRF units"}}
{"binder": "CP_01_C11 (scFv, not shown: small tags and cut ends) scFv: QVQLVESGAEVKKPGASVKVSCKASGYTFTGYYMHWVRQAPGQGLEWMGRINPNSGGTNYAQKFQGRVTMTRDTSISTAYMELSRLRSDDTAVYYCASGGAGWNWGQGTMVTVSSGGGGSGGGGSGGGASNFMLTQPHSVSESPGKTATISCTRSSGSIASNYVQWYQQRPGSAPTTVIYEDNQRPFGVPDRFSGSIDSSSNSASLTISGLKTEDEADYYCQSHDSSNVVFGGGTQLTVLGQPAA", "TRBC2 Binding": 622}
{"binder": "CP_01_D12 (scFv, not shown: small tags and cut ends) scFv: EVQLLESGGGVVQPGRSLRLSCAASGFTFSSYAMHWVRQAPGKGLEWVAVISYDGSNKYYADSVKGRFTISRDNSKNTLYLQMNSLRAEDTAVYYCAKGGDTYGFLDNWGQGTMVTVSSGGGGSGGGGSGGGASDIQMTQSPSTLSASVGDRVTITCRASQSISSWLAWYQQKPGKAPKLLIYKASSLESGVPSRFSGSGSGTDFTLTISSLQPEDFATYYCQQFNAYPLTFGGGTKVEIKRTAAA", "TRBC2 Binding": 298}
{"binder": "CP_01_D10 (scFv, not shown: small tags and cut ends) scFv: QVQLVESGGGLVQPGRSLRLSCAASGFTFSSYAMHWVRQAPGKGLEWVAVISYDGSSKYYADSVKGRFTISRDNSKNTLYLQMNSLRAEDTAVYYCAKGGGSFGAFDIWGQGTLVTVSSGGGGSGGGGSGGGASDIQMTQSPSSLSASVGDRVTITCRASQSISRYLNWYQQKPGKAPNLLIYAASSLQSGVPSRFSGSGSGTDFTLTISSLQPEDFATYYCQQYNSYPLTFGGGTKLEIKRTAAA", "TRBC2 Binding": 306}
